Publication PMC12460815
Values joined by “and” are separate entries in the source; they are usually repeats but may differ in a detail not shown here. Identical values can stand only once.

Columns and labels:
[1] = target: recombinant wild-type FGF2 (UniProt P09038); assay: gel electrophoresis under non-denaturing conditions; recombinant FGF2 under non-denaturing conditions, compared with denaturation at 95 °C
[2] = target: recombinant Ser 255 mutation FGF2 (UniProt P09038); assay: as above

stoichiometry N [1]	stoichiometry N [2]	Substance
2 and 4	–	recombinant wild-type FGF2 (from UniProt P09038 1-288) (natural protein)
–	2 and 4	recombinant Ser 255 mutation FGF2 (from UniProt P09038 1-288) (natural protein)
